Experimental findings from the RNAGym collection of RNA variant scans (doi:10.7554/elife.80360) are described below.

The labels stand for the following.
B1: HDV Ribozyme (parent)
chain: GGCCGGCAUGGUCCCAGCCUCCUCGCUGGCGCCGGCUGGGCAACAUUCCGAGGGGACCGUCCCCUCGGUAAUGGCGAAUGGGACCCA

The variants in this data set derive from B1. The data set can be described thus: self-cleavage, relative activity (ratio to wild type); higher = more cleavage; co-transcriptional.
Regarding G34C C85G, the self-cleavage was determined as 0.125. To C22U U23C belongs 0.68; to C22U G38U, 0.149. To C15G G29A belongs 0.0339; to G50A C84U, 0.754. To C21U G34C belongs 0; to C58U C62G, 0.812.

Consider A42G U79G, for which the self-cleavage was determined as 0.359. For the variant G38A G82A, the self-cleavage turned out to be 0.0482. To C7G G10C belongs 0.222; to U27G A70U, 0.519.

On to U47C U65A, for which the self-cleavage was 0.923. The figure for G10U C49G is 0.391; for C49A G74U it is 0.415. To G39A G50U belongs 0.441. The figure for G5U G38A is 0.119.

G38A C63A: the self-cleavage came to 0.0978.

With U20A C32G, the self-cleavage was determined as 0.111. With C36G C62U, the self-cleavage is 0.246. The figure for G53U C84G is 0.554; for C3A U65A it is 0.641; for C66U C84A it is 0.909. The figure for C41G G52U is 0.554.

Take C3U U69G: the self-cleavage was determined as 0.649. The figure for C58U G80C is 0.203. To G5C C48G belongs 0.0755; to C30A C58A, 0.623; to C61U G67C, 0.78. C41U C49A: the self-cleavage is 0.563. As to C62G A77U, the self-cleavage was determined as 0.388. To C44G C66G belongs 0.554; to G11A G67C, 0.456. To A71C C86G belongs 0.63; to C57G C64U, 1.05; to G2A C30U, 0.0639. To C13U C62G belongs 0.554; to A56U A70C, 0.811. G6U C32G: the self-cleavage came out at 0.798. Regarding U23G G82U, the self-cleavage came to 0.17. As for G38U C63G, the self-cleavage was 0.0978. The figure for C7A G68A is 0.464. To C41U G68A belongs 0.743.

Turning to G38C C84G, the self-cleavage was determined as 0.0489. The figure for U23A G52A is 1.02; for U27C C32U it is 0.115. The figure for G68C U72G is 0.356. The figure for G5U G50A is 0.196. For G73U A87G, the self-cleavage was 0.452.

For the variant C32G G81U, the self-cleavage amounted to 0.0639.

Regarding C4U C85A, the self-cleavage is 0.341. To A43G C49U belongs 0.469; to G35C G67A, 0.148; to A42C C62A, 0.365. The figure for G39U C64G is 0.845; for G28C G74A it is 0.108.

As to C49A C57A, the self-cleavage was 0.875. The figure for U37G C64A is 0.122; for C24G A42G it is 0.185; for U9A G52C it is 1.16. The figure for G55U G81A is 0.287; for U65G A78U it is 0.569; for U37C G80U it is 0.224. G10C C13U: the self-cleavage turned out to be 0.119. The figure for G34C G68C is 0.128. The figure for C48G G54A is 0.372. To C48A G73A belongs 0.755. Consider A16U U46A, for which the self-cleavage worked out at 0.489. To G73U C86G belongs 0.354; to C3A U12A, 0.0848; to C4G G67C, 0.374. To G11U C15U belongs 0.258; to G40C C86U, 0.372. C62U G82C: the self-cleavage is 0.242. The figure for G11A U46C is 0.166; for A16G G73C it is 0.431; for U9G A16U it is 1.14.

Take G10U G31A: the self-cleavage was 0.29. To G76C G81U belongs 0.475. The figure for U46A C85U is 0.675.

With G10C C30U, the self-cleavage was found to be 0.208. With C15G G52C, the self-cleavage stood at 0.95. For U27G G29U, the self-cleavage was 0.739. The figure for C58U U65A is 1.17; for C4A G50A it is 0.172; for C24U G53C it is 0.848. As to G40U A43G, the self-cleavage stood at 0.54. With C58A A78U, the self-cleavage was 0.424. To C44U C66A belongs 0.677; to C63A U79G, 0.682; to G54U C84U, 0.808. The figure for G1A C58A is 0.0978; for C75G A77U it is 0.213; for C75G A77G it is 0.0755. For the variant G2C U9G, the self-cleavage is 0.0723. On to C21A G35U, for which the self-cleavage was 0.0744.

Take U27A G50C: the self-cleavage was 0.656.

On to U27A G50A, for which the self-cleavage turned out to be 0.967. The figure for C4A G29U is 0; for U20A U47C it is 0.0594; for G2U C3G it is 0.0222. As to G10A C58U, the self-cleavage was found to be 0.972. The figure for C22A G59C is 0.361; for U27G C30U it is 0.554; for G50C G81C it is 0.125. Consider C7A G50C, for which the self-cleavage worked out at 0.415. For the variant G25C G38U, the self-cleavage amounted to 0.0791.

With A16C C18G, the self-cleavage worked out at 0.

With G1U G55C, the self-cleavage amounted to 0.455. The figure for U9G C61A is 1.33; for U20C G35U it is 0.0978; for C7A U47A it is 0.697. To G52A C84U belongs 0.691; to U46C G81U, 0.302. With G11U C58U, the self-cleavage worked out at 0.447. The figure for G31C A77U is 0.0489; for C64U C86A it is 0.66.

In the case of G38A C58G, the self-cleavage was found to be 0.141. As for C57A U69C, the self-cleavage came to 0.892.

As to C18U A51C, the self-cleavage amounted to 0.901.

Consider G39C G68C, for which the self-cleavage worked out at 0.339. As to G54U C62A, the self-cleavage worked out at 0.99. The figure for G6C C63U is 0.348; for C49U A78C it is 0.188; for G38A C49A it is 0.172.

Regarding U20G C33U, the self-cleavage came out at 0.0852. To G34A C41G belongs 0.141; to G2U C75A, 0. The figure for A8G A51G is 1.16. The figure for C15G C48G is 0.739. As to C63G U69G, the self-cleavage is 0.731. To U20C A45U belongs 0.166. G17A G34U: the self-cleavage came to 0.0346.

Regarding C7U U69C, the self-cleavage was 0.853. The figure for C30U G68U is 0.594; for U9G C22A it is 0.314.

Take C15G G82A: the self-cleavage was found to be 0.0978. To C41G C57G belongs 0.804.

Regarding C15A G17U, the self-cleavage was 0.252. The figure for C32U C57U is 0.843; for C18U G34U it is 0.0455.

As to U12G G25A, the self-cleavage is 0.151.

For C26A C41U, the self-cleavage stood at 1.17. To G38U A78U belongs 0.0911; to C7U C63U, 0.918. The figure for C22G G38U is 0.117; for C49G C66G it is 0.665; for C22A C30U it is 0.121. The figure for C24G G52C is 0.172; for C13G C49G it is 0.356. Consider U12A U47A, for which the self-cleavage came out at 0.302. The figure for C36U G67U is 0.431; for C22U C63U it is 0.76. The figure for C30G U65C is 0; for G17C U60C it is 0.208; for C24G C48G it is 0.0941.

For the variant G29C C33G, the self-cleavage was determined as 0.185.

Consider U12G C33A, for which the self-cleavage was 0.

As to G28A U72A, the self-cleavage is 0.119. To C32U C66U belongs 0.926. The figure for U23A C36G is 0.17; for C19U C30U it is 0.0608; for U23A G39U it is 0.696. To C14G G67A belongs 0.453. On to C19A G38A, for which the self-cleavage was determined as 0.125. For G1C G82A, the self-cleavage came out at 0.0475. In the case of G39C G67A, the self-cleavage stood at 0.134.

C44A G68A: the self-cleavage was determined as 0.704.
